The record followed here is paper PMC9482650, “Quantitative fragmentomics allow affinity mapping of interactomes” (Nature Communications, 2022).

The chains are these.
T1: APBA2_2, Q99767
T1 sequence (Q99767 654-744, limits assumed, looked up): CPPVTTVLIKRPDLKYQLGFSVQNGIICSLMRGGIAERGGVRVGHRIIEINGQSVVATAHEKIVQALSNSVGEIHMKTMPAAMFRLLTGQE

T2: ARHGAP21, Q5T5U3
T2 sequence (Q5T5U3 45-169, limits assumed, looked up): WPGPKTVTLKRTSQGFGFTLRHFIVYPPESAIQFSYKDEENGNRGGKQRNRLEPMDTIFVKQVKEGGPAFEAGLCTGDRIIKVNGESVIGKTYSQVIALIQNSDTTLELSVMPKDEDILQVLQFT

T3: CARD11, Q9BXL7
T3 sequence (Q9BXL7 662-765, limits assumed, looked up): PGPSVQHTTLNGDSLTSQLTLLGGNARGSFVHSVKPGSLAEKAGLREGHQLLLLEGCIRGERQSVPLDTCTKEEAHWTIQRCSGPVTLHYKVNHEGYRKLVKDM

T4: DFNB31_1, Q9P202
T4 sequence (Q9P202 135-233, limits assumed, looked up): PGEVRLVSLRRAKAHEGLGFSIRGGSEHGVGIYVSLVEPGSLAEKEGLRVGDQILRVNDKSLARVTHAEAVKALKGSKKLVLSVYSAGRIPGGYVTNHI

T5: DFNB31_3, Q9P202
T5 sequence (Q9P202 811-907, limits assumed, looked up): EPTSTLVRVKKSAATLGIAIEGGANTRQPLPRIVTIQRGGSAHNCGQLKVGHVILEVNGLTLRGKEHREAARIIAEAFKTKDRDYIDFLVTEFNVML

T6: FRMPD1, Q5SYB0
T6 sequence (Q5SYB0 52-145, limits assumed, looked up): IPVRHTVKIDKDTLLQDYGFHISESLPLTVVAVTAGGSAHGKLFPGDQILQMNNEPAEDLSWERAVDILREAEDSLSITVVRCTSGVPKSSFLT

T7: HTRA3, P83110
T7 sequence (P83110 354-453, limits assumed, looked up): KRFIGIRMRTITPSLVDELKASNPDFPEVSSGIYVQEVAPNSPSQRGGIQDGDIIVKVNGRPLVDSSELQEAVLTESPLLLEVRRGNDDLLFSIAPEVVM

T8: PARD3B_1, Q8TEW8
T8 sequence (Q8TEW8 196-299, limits assumed, looked up): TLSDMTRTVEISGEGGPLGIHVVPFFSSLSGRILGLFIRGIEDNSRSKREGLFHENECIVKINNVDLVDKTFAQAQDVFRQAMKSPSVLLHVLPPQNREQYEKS

T9: PDZD7_3, Q9H5P4
T9 sequence (Q9H5P4 857-944, limits assumed, looked up): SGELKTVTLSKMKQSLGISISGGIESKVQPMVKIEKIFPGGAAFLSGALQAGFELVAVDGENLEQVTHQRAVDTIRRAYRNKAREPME

T10: SIPA1L2, Q9P2F8
T10 sequence (Q9P2F8 945-1036, limits assumed, looked up): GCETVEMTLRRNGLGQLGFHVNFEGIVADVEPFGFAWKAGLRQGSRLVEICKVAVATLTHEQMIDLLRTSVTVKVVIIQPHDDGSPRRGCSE

T11: SNTA1, Q13424
T11 sequence (Q13424 82-180, limits assumed, looked up): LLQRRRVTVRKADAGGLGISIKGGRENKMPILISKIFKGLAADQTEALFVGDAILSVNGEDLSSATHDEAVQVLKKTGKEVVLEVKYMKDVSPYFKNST

T12: SNTG1, Q9NSN8
T12 sequence (Q9NSN8 52-150, limits assumed, looked up): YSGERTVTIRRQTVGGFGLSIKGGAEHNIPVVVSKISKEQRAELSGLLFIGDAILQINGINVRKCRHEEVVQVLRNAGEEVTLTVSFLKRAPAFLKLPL

T13: TJP3_3, O95049
T13 sequence (O95049 375-456, limits assumed, looked up): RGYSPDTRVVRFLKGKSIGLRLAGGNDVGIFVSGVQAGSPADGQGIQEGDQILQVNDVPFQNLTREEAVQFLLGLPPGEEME

B1: SLCO2B1, O94956 (peptide)
chain: PGKKPEDSRV
B2: SLC2A3, P11169 (peptide)
chain: EPAKETTTNV

Sequence of SCRIB_3, Q14160 (Q14160 999-1103): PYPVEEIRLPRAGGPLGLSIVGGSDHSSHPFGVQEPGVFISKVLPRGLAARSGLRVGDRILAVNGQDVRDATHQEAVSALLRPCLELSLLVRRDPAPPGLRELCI
Sequence of MAGI1_2, Q96QZ7 (Q96QZ7 456-580): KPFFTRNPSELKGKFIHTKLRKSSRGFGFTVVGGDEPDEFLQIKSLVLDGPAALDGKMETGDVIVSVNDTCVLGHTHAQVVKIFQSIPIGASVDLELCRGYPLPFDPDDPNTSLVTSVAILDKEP
Sequence of GRIP2_3, Q9C0E4 (Q9C0E4 238-339): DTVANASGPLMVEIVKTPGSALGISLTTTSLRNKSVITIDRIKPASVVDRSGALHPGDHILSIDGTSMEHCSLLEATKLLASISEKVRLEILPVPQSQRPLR

The target of the first experiment is T1, APBA2_2, Q99767. Kind of experiment: holdup assay. More on the design: key: below the threshold = too weak to quantify, mostly under pKd 3.1 to 4. To be noted: plain residues with an end cap or a label only (N-terminal biotin on a linker: ado-ado).
One may read the pKd as the negative decadic logarithm of the Kd, by convention in mol/L. With B1, the pKd result is on record as “below the threshold”.

On to B2, for which the pKd entry was “below the threshold”.

The next experiment addresses T2, ARHGAP21, Q5T5U3. Kind of experiment: holdup assay. The note with it: plain residues with an end cap or a label only (N-terminal biotin on a linker: ado-ado). More on the design: key: below the threshold = too weak to quantify, mostly under pKd 3.1 to 4.
B1 displayed a negative logarithm of the Kd (pKd) of 3.84.

As for B2, the pKd amounted to 4.06.

In a further experiment the target is T3, CARD11, Q9BXL7. Kind of experiment: holdup assay. More on the design: key: below the threshold = too weak to quantify, mostly under pKd 3.1 to 4. To be noted: plain residues with an end cap or a label only (N-terminal biotin on a linker: ado-ado).
Take B1: the pKd result is reported as “below the threshold”.

On to B2, for which the pKd result is “below the threshold”.

The target of a further experiment is T4, DFNB31_1, Q9P202. Kind of experiment: holdup assay. More on the design: key: below the threshold = too weak to quantify, mostly under pKd 3.1 to 4. To be noted: plain residues with an end cap or a label only (N-terminal biotin on a linker: ado-ado).
On to B1, for which the pKd came to 3.67.

In the case of B2, the pKd stood at 3.61.

In the next experiment the target is T5, DFNB31_3, Q9P202. Kind of experiment: holdup assay. The arrangement: key: below the threshold = too weak to quantify, mostly under pKd 3.1 to 4. To be noted: plain residues with an end cap or a label only (N-terminal biotin on a linker: ado-ado).
B1: the pKd result is on record as “below the threshold”.

B2 displayed a pKd of 4.05.

A further experiment has as its target T6, FRMPD1, Q5SYB0. Kind of experiment: holdup assay. More on the design: key: below the threshold = too weak to quantify, mostly under pKd 3.1 to 4. The note with it: plain residues with an end cap or a label only (N-terminal biotin on a linker: ado-ado).
Regarding B1, the pKd result is “below the threshold”.

With B2, the pKd entry is given as “below the threshold”.

The target of the next experiment is GORASP1, Q9BQQ3. Kind of experiment: holdup assay. More on the design: key: below the threshold = too weak to quantify, mostly under pKd 3.1 to 4. The note with it: plain residues with an end cap or a label only (N-terminal biotin on a linker: ado-ado).
Sequence of GORASP1, Q9BQQ3 (Q9BQQ3 1-208): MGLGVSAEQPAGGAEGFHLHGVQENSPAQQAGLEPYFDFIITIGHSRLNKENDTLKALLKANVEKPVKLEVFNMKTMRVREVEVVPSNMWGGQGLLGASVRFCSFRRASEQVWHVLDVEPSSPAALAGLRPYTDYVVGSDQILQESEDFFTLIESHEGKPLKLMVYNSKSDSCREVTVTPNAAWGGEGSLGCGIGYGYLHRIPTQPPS
Consider B1, for which the pKd result is “below the threshold”.

Take B2: the pKd result is recorded as “below the threshold”.

The next experiment has as its target GRIP2_3, Q9C0E4. Kind of experiment: holdup assay. The arrangement: key: below the threshold = too weak to quantify, mostly under pKd 3.1 to 4. The note with it: plain residues with an end cap or a label only (N-terminal biotin on a linker: ado-ado).
With B1, the pKd result is “below the threshold”.

Take B2: the pKd entry is listed as “below the threshold”.

In a further experiment the target is GRIP2_7, Q9C0E4. Kind of experiment: holdup assay. The arrangement: key: below the threshold = too weak to quantify, mostly under pKd 3.1 to 4. To be noted: plain residues with an end cap or a label only (N-terminal biotin on a linker: ado-ado).
Sequence of GRIP2_7, Q9C0E4 (Q9C0E4 934-1023): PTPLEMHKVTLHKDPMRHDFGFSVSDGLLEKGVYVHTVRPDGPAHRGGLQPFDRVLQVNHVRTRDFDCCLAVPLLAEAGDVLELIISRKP
Take B1: the pKd result is “below the threshold”.

On to B2, for which the pKd result is “below the threshold”.

A further experiment has as its target T7, HTRA3, P83110. Kind of experiment: holdup assay. The arrangement: key: below the threshold = too weak to quantify, mostly under pKd 3.1 to 4. To be noted: plain residues with an end cap or a label only (N-terminal biotin on a linker: ado-ado).
Consider B1, for which the pKd result is given as “below the threshold”.

Take B2: the pKd entry is on record as “below the threshold”.

For a further experiment, the target named is LIMK2, P53671. Kind of experiment: holdup assay. The arrangement: key: below the threshold = too weak to quantify, mostly under pKd 3.1 to 4. To be noted: plain residues with an end cap or a label only (N-terminal biotin on a linker: ado-ado).
Sequence of LIMK2, P53671 (P53671 143-248): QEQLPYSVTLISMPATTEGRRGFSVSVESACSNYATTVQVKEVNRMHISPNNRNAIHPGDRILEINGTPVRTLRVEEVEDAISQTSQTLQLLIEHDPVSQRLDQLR
On to B1, for which the pKd entry was “below the threshold”.

For B2, the pKd entry is on record as “below the threshold”.

The next experiment concerns the target MAGI1_2, Q96QZ7. Kind of experiment: holdup assay. More on the design: key: below the threshold = too weak to quantify, mostly under pKd 3.1 to 4. The note with it: plain residues with an end cap or a label only (N-terminal biotin on a linker: ado-ado).
Regarding B1, the pKd result is listed as “below the threshold”.

For B2, the pKd entry is on record as “below the threshold”.

For another experiment, the target named is NHERF4_2, Q86UT5. Kind of experiment: holdup assay. The arrangement: key: below the threshold = too weak to quantify, mostly under pKd 3.1 to 4. The note with it: plain residues with an end cap or a label only (N-terminal biotin on a linker: ado-ado).
Sequence of NHERF4_2, Q86UT5 (Q86UT5 220-308): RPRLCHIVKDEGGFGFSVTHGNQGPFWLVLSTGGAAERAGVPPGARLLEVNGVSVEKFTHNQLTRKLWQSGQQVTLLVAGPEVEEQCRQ
As for B1, the pKd result was “below the threshold”.

B2 came in with a pKd of 3.56.

A further experiment deals with T8, PARD3B_1, Q8TEW8. Kind of experiment: holdup assay. The arrangement: key: below the threshold = too weak to quantify, mostly under pKd 3.1 to 4. The note with it: plain residues with an end cap or a label only (N-terminal biotin on a linker: ado-ado).
As for B1, the pKd result is given as “below the threshold”.

As for B2, the pKd result is given as “below the threshold”.

The target of a further experiment is PARD3_3, Q8TEW0. Kind of experiment: holdup assay. The note with it: plain residues with an end cap or a label only (N-terminal biotin on a linker: ado-ado). More on the design: key: below the threshold = too weak to quantify, mostly under pKd 3.1 to 4.
Sequence of PARD3_3, Q8TEW0 (Q8TEW0 582-685): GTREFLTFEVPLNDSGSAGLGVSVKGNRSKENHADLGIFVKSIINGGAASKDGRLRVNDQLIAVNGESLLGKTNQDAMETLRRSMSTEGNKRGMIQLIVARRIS
Take B1: the pKd entry is “below the threshold”.

In the case of B2, the negative logarithm of the Kd (pKd) entry is recorded as “below the threshold”.

The target in the next experiment is T9, PDZD7_3, Q9H5P4. Kind of experiment: holdup assay. The arrangement: key: below the threshold = too weak to quantify, mostly under pKd 3.1 to 4. The note with it: plain residues with an end cap or a label only (N-terminal biotin on a linker: ado-ado).
Consider B1, for which the pKd result is “below the threshold”.

Take B2: the pKd worked out at 4.3.

In the next experiment the target is SCRIB_1, Q14160. Kind of experiment: holdup assay. The note with it: plain residues with an end cap or a label only (N-terminal biotin on a linker: ado-ado). More on the design: key: below the threshold = too weak to quantify, mostly under pKd 3.1 to 4.
Sequence of SCRIB_1, Q14160 (Q14160 718-814): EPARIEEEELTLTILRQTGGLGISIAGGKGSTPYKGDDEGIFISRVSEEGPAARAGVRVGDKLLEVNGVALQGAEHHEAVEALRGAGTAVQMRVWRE
Turning to B1, the pKd entry was “below the threshold”.

In the case of B2, the pKd entry is “below the threshold”.

A further experiment concerns the target SCRIB_3, Q14160. Kind of experiment: holdup assay. More on the design: key: below the threshold = too weak to quantify, mostly under pKd 3.1 to 4. The note with it: plain residues with an end cap or a label only (N-terminal biotin on a linker: ado-ado).
Regarding B1, the pKd entry is given as “below the threshold”.

In turn, B2 registered a pKd of 3.82.

Another experiment deals with T10, SIPA1L2, Q9P2F8. Kind of experiment: holdup assay. More on the design: key: below the threshold = too weak to quantify, mostly under pKd 3.1 to 4. The note with it: plain residues with an end cap or a label only (N-terminal biotin on a linker: ado-ado).
On to B1, for which the pKd entry was “below the threshold”.

With B2, the pKd entry was “below the threshold”.

The target of another experiment is T11, SNTA1, Q13424. Kind of experiment: holdup assay. More on the design: key: below the threshold = too weak to quantify, mostly under pKd 3.1 to 4. To be noted: plain residues with an end cap or a label only (N-terminal biotin on a linker: ado-ado).
B1: the pKd was determined as 3.97.

In turn, B2 came in with a pKd of 4.09.

A further experiment has as its target T12, SNTG1, Q9NSN8. Kind of experiment: holdup assay. The arrangement: key: below the threshold = too weak to quantify, mostly under pKd 3.1 to 4. To be noted: plain residues with an end cap or a label only (N-terminal biotin on a linker: ado-ado).
B1: the pKd entry is given as “below the threshold”.

Molecule B2 came in with a pKd of 4.06.

For a further experiment, the target named is TJP1_2, Q07157. Kind of experiment: holdup assay. The arrangement: key: below the threshold = too weak to quantify, mostly under pKd 3.1 to 4. To be noted: plain residues with an end cap or a label only (N-terminal biotin on a linker: ado-ado).
Sequence of TJP1_2, Q07157 (Q07157 181-274): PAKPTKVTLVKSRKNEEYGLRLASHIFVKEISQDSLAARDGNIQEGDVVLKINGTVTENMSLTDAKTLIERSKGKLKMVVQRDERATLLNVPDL
Turning to B1, the pKd result is listed as “below the threshold”.

For the molecule B2, the negative-log Kd (pKd) result is recorded as “below the threshold”.

The target of the next experiment is TJP2_1, Q9UDY2. Kind of experiment: holdup assay. The note with it: plain residues with an end cap or a label only (N-terminal biotin on a linker: ado-ado). The arrangement: key: below the threshold = too weak to quantify, mostly under pKd 3.1 to 4.
Sequence of TJP2_1, Q9UDY2 (Q9UDY2 24-128): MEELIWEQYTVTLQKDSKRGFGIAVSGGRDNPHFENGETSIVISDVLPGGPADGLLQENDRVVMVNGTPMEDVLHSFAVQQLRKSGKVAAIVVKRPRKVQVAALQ
As for B1, the pKd entry is on record as “below the threshold”.

As to B2, the pKd entry is given as “below the threshold”.

For another experiment, the target named is T13, TJP3_3, O95049. Kind of experiment: holdup assay. To be noted: plain residues with an end cap or a label only (N-terminal biotin on a linker: ado-ado). More on the design: key: below the threshold = too weak to quantify, mostly under pKd 3.1 to 4.
For B1, the pKd result is recorded as “below the threshold”.

Take B2: the pKd result is recorded as “below the threshold”.
